Ends that are not written are not given here.
Key:
[1] = system: retinal ganglion cell layer of the retina; assay: Internalization in vivo after injection into the vitreous chamber of the eye; conditions: adult rats, 5 μl of 1 μg/μl into vitreous chamber, 4 hours
Procedure: To analyze the transduction characteristics of SLPI in vivo, fSLPI was injected into the eyes of adult rats. Long-Evans rats (200-250 g) were anesthetized with 2.5% isofluorane and 5 μl of fSLPI (1 μg/μl) or unconjugated fluorescein was injected into the vitreous chamber of the right eye using a glass micropipette (1 μm diameter) attached to a microsyringe pump. 4 hours later, the animals were sacrificed by transcardial perfusion with 4% paraformaldehyde. Following removal of the cornea and lens, the eyes were dissected out and post-fixed in 4% paraformaldehyde for 48 hours. Tissues were then cryoprotected in 30% sucrose in phosphate-buffered saline (PBS) for an additional 48 hours. Tissues were sectioned sagitally at 30 μm on a cryostat and thaw-mounted onto gelatin-coated slides.

[2] = system: retinal ganglion cell layer of the retina; assay: SLPI-derived PTD injected into adult eye (Example 8, expected result); conditions: adult rats, injected into the eyes, 4 hours
Procedure: To analyze the transduction characteristics of SLPI11-25 in vivo, fSLPI11-25 is injected into the eyes of adult rats.

[3] = system: Chinese hamster ovary (CHO) cells; assay: Presence in the underlying CHO cell monolayer at 4° C.; assay type: cell-based; conditions: 10 μg/ml, 4 hours
Procedure: (§1) For these experiments, monolayers of Chinese hamster ovary (CHO) cells were prepared by plating 75,000 cells into the wells of 8-well chamber slides coated with 20 μg/ml PDL and 10 μg/ml fibronectin (Mukhopadhyay et al., 1994, supra). These cells were incubated overnight at 37° C. to allow the monolayers to form. P6 DRG neurons were then isolated, plated on the monolayers in SATO culture medium, and incubated for an additional 16 hours. This approach was used because of the harsh conditions used in these experiments. Neurons would likely fail to adhere to the slides if plated directly onto PDL and incubated at 4° C., and so, we enhanced adhesion by plating the neurons on CHO cell monolayers and allowing them to extend neurites. Cold SATO culture medium was supplemented with 10 μg/ml penetratin, fSLPI, or SLPI11-25 and added to the wells containing the neurons. The slides were then covered and incubated at 4° C. for 4 hours. Cells were then fixed and immunostained for βIII tubulin as described.

[4] = Blood brain barrier crossing after intraperitoneal injection; assay type: in vivo, 129SI/SV1MJ mice; conditions: mice, intraperitoneal 100 μg
Procedure: To assess whether SLPI crosses the blood brain barrier, adult 129SI/SV1MJ mice received intraperitoneal injections of 100 μg fSLPI in sterile PBS or unconjugated fluorescein (500 μl total volume). Mice were sacrificed by transcardial perfusion with 4% paraformaldehyde after 4 and 8 hours. The brains and cervical spinal cords were dissected out and prepared for sectioning as described. Tissues were sectioned coronally at 30 μm and slides were coverslipped as described. […] This may be an inherent property of SLPI or may be secondary to its observed efficient cellular internalization which may in turn prevent SLPI from ever reaching the CNS in high enough concentrations to be detected.
To assess whether SLPI11-25 crosses the blood brain barrier, 129SI/SV1MJ mice received intraperitoneal injections of 100 μg SLPI11-25 or penetratin in sterile PBS ([…]). Mice were sacrificed after 1 and 4 hours, and the brains and cervical spinal cords were prepared for sectioning as described. Tissues were sectioned coronally at 30 μm and slides were coverslipped as described. […] This may be an inherent property of SLPI-derived PTDs, or may be secondary to its observed efficient cellular internalization, which may in turn prevent the SLPI-derived PTD from ever reaching the CNS in high enough concentrations to be detected.

DRG neurons [5] = assay: Internalization of fluorescein-labeled SLPI/peptides by DRG neurons at 37° C. (fluorescence microscopy); assay type: cell-based; conditions: for internalization / presence in nuclei of DRG neurons: P6 DRG neurons, 5 μg/ml, 15 minutes
Procedure: To visualize internalization of SLPI in living cells, SLPI was labeled with fluorescein using a Fluorescein-EX protein labeling kit (Molecular Probes). The labeling reaction was performed following the protocol provided by the manufacturer. P5 DRG neurons were isolated (Mukhopadhyay et al., 1994; DeBellard et al., 1996; Cai et al., 1999; supra) and treated with either 10 μg/ml of fluorescein-labeled SLPI (fSLPI) or unconjugated fluorescein in SATO culture medium. Cells were then plated in 8 well chamber slides coated with 100 μg/ml poly-D-lysine (PDL) and incubated for 1 hour at 37° C. Cells were then fixed with 4% paraformaldehyde and immunostained using a monoclonal antibody to the neuronal marker βIII tubulin (1:1000 dilution, Covance). After an overnight incubation at 4° C., the cells were rinse and incubated successively with biotinylated anti-mouse antibody (1:500 dilution, Amersham) and Texas Red-conjugated streptavidin (1:300 dilution, Amersham). Slides were then coverslipped and viewed using an upright fluorescence microscope.
To further characterize SLPI internalization into living cells, P5 DRG neurons in SATO culture medium were treated with unconjugated fluorescein, 1 μg/ml fSLPI, or 10 μg/ml fSLPI and plated onto PDL-coated slides for 5 minutes at 37° C. Cells were then fixed and immunostained for βIII tubulin as described.
The transduction characteristics of a SLPI-derived PTD comprising amino acids 11-25 of human SLPI (SLPI11-25) were compared to those of the SLPI protein. SLPI11-25 and penetratin were custom synthesized and labeled with fluorescein at the C-terminus by Invitrogen. P6 DRG neurons were isolated and treated with unconjugated fluorescein, 5 μg/ml fSLPI, 5 μg/ml SLPI11-25, or 5 μg/ml penetratin in SATO culture medium. Cells were plated onto PDL-coated slides and incubated for 15 minutes at 37° C. Cells were then fixed and immunostained for βIII tubulin as described.

DRG neurons [6] = assay: Internalization at 4° C. by DRG neurons plated on CHO cell monolayers; assay type: cell-based; conditions: P6 DRG neurons, 10 μg/ml, 4 hours
Procedure: as §1

cerebellar neurons = assay: Western blot of cytoplasmic and nuclear fractions of treated cerebellar neurons; assay type: cell-based, rats; conditions: 0, 1, 5, and 10 μg/ml, 1 hour, 37° C.
Procedure: FIG. 1: Western blot analysis of cytoplasmic and nuclear fractions from cerebellar neurons treated with 0, 1, 5, and 10 μg/ml SLPI for 1 hour. Higher levels of SLPI are observed in both cytoplasmic and nuclear fractions with increasing concentrations of SLPI. Phospho-CREB is used as a nuclear marker and actin is used as a loading control. See Example 1.
To characterize the transduction abilities of the SLPI protein, cerebellar neurons were isolated from postnatal day 6 (P6) rats (Mukhopadhyay et al., Neuron 13:757-767 (1994); DeBellard et al., Mol. Cell. Neurosci. 7:89-101 (1996); Cai et al., Neuron 22:89-101 (1999)) and treated with 0, 1, 5, and 10 μg/ml recombinant human SLPI (R&D Systems) in SATO culture medium (Doherty et al., Neuron 5:209-219 (1990); Nature 343:464-466 (1990)). Cells were incubated at 37° C. for 1 hour, and cytoplasmic and nuclear fractions were prepared using NE-PER cytoplasmic and nuclear extraction reagents (Pierce). Protein samples were subjected to SDS-PAGE using 15% SDS polyacrylamide gels and transferred to nitrocellulose. SLPI was detected using a polyclonal antibody to recombinant human SLPI (R&D Systems). […] The nuclear localization of SLPI was then confirmed by reprobing the membrane for a well-known nuclear marker: phosphorylated cyclic AMP response element binding protein (pCREB; Cell Signaling). […]

## O=C1OC2(c3ccc(O)cc3Oc3cc(O)ccc32)c2ccccc21 [fluorescein]
[1]
  presence in the retinal ganglion cell layer of the retina: no signal was observed
[2]
  presence in the retinal ganglion cell layer of the retina: no signal is observed

## SLPI11-25: SLPI-derived PTD, amino acids 11-25 of human SLPI (PPKKSAQCLRYKKPE, SEQ ID NO: 2), labeled with fluorescein at the C-terminus (PPKKSAQCLRYKKPE-fluorescein; listed as Homo sapiens)
[3]
  present in the underlying CHO cell monolayer: not
[4]; 1 and 4 hours
  observed in the brain and spinal cord: No SLPI11-25 was observed in the brain and spinal cord at either time point
DRG neurons [5]
  internalization / presence in nuclei of DRG neurons: present in the nuclei of DRG neurons
DRG neurons [6]
  nuclear localization at the restrictive temperature: still occurred at the restrictive temperature

B1: SLPI: recombinant human secretory leukocyte protease inhibitor (R&D Systems), 107 amino acid polypeptide, SEQ ID NO: 1 (protein, listed as Homo sapiens)
chain: SGKSFKAGVCPPKKSAQCLRYKKPECQSDWQCPGKKRCCPDTCGIKCLDPVDTPNPTRRKPGKCPVTYGQCLMLNPPNFCEMDGQCKRDLKCCMGMCGKSCVSPVKA
Cerebellar neurons
  SLPI in cytoplasmic and nuclear fractions: present in increasing amounts in both the cytoplasmic and nuclear fractions

B2: fSLPI: SLPI labeled with fluorescein using a Fluorescein-EX protein labeling kit (protein, UniProt P03973 26-132, looked up)
Antileukoproteinase: SGKSFKAGVCPPKKSAQCLRYKKPECQSDWQCPGKKRCCPDTCGIKCLDPVDTPNPTRRKPGKCPVTYGQCLMLNPPNFCEMDGQCKRDLKCCMGMCGKSCVSPVKA
modifications: fluorescein label
notes: SLPI labeled with fluorescein using a Fluorescein-EX protein labeling kit
[3]
  present in the underlying CHO cell monolayer: not
[4]; 4 and 8 hours
  observed in the brain and spinal cord: No fSLPI was observed in the brain and spinal cord at either time point
DRG neurons [5]; P5 DRG neurons, 1 μg/ml or 10 μg/ml, 5 minutes
  internalization into nuclei: internalized into nuclei within 5 minutes in a dose-dependent manner
DRG neurons [5]; P5 DRG neurons, 10 μg/ml, 1 hour
  internalization / presence in nuclei of neurons: clearly present in the nuclei of neurons
DRG neurons [5]
  internalization / presence in nuclei of DRG neurons: present in the nuclei of DRG neurons
DRG neurons [6]
  nuclear localization at the restrictive temperature: still occurred at the restrictive temperature

Reference: patent publication US8598315B2, “Protein transduction domains derived from secretory leukocyte protease inhibitor” (Research Foundation of City University of New York, priority 2007, dated 2013)
